Square brackets hold non-standard residues; d marks the D form. Peptide text beside a SMILES is read from it. * marks the point of attachment. X3 = O=C(CCCCCNCc1nc2c(sc3cc(Br)cnc32)c(=O)[nH]1)*
Legend:
Experiment in all cases: Kinase profiling (radiometric filter-binding)
Assay type in all cases: biochemical
[1] = target: CLK2 (Homo sapiens, UniProt P49760); conditions: CLK2, 1 µM inhibitor; read-out: Residual activity, %
Method in brief: (§1)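 Filter-binding radiometric assays of human kinases measure the fraction of activity that persists with 1 µM inhibitor (final). ATP is supplied at KM or lower for each target.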

[2] = target: EPH-A2 (Homo sapiens, UniProt P29317); conditions: EPH-A2, 1 µM inhibitor; read-out: Residual activity, %
Sequence of EPH-A2 (P29317 24-976): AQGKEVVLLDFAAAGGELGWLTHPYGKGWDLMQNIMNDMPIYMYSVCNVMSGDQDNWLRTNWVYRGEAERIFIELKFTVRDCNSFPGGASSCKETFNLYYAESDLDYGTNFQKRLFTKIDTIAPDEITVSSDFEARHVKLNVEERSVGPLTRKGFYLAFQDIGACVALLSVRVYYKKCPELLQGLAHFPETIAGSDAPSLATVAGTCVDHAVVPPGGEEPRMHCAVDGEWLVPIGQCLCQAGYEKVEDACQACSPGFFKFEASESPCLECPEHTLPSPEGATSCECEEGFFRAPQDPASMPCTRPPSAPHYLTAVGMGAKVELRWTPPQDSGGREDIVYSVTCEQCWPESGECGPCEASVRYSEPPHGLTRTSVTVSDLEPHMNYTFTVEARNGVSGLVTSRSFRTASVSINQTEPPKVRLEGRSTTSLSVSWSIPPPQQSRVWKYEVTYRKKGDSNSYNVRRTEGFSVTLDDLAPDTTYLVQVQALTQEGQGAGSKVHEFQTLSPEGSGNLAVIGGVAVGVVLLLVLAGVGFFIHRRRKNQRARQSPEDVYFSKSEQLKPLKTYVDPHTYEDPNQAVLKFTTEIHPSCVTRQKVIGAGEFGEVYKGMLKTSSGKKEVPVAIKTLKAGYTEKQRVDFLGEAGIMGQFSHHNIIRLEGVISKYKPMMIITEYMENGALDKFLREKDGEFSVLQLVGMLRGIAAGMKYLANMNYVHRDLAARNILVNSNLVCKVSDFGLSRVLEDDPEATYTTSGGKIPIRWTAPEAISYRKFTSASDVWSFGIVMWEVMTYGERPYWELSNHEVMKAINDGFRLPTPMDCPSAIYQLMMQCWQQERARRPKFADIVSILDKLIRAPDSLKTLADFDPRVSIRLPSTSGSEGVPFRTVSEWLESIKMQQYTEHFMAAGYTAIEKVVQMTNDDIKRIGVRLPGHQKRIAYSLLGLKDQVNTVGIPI
Method in brief: as §1

[3] = target: MEKK1 (Homo sapiens, UniProt Q13233); conditions: MEKK1, 1 µM inhibitor; read-out: Residual activity, %
Sequence of MEKK1 (Q13233 whole entry): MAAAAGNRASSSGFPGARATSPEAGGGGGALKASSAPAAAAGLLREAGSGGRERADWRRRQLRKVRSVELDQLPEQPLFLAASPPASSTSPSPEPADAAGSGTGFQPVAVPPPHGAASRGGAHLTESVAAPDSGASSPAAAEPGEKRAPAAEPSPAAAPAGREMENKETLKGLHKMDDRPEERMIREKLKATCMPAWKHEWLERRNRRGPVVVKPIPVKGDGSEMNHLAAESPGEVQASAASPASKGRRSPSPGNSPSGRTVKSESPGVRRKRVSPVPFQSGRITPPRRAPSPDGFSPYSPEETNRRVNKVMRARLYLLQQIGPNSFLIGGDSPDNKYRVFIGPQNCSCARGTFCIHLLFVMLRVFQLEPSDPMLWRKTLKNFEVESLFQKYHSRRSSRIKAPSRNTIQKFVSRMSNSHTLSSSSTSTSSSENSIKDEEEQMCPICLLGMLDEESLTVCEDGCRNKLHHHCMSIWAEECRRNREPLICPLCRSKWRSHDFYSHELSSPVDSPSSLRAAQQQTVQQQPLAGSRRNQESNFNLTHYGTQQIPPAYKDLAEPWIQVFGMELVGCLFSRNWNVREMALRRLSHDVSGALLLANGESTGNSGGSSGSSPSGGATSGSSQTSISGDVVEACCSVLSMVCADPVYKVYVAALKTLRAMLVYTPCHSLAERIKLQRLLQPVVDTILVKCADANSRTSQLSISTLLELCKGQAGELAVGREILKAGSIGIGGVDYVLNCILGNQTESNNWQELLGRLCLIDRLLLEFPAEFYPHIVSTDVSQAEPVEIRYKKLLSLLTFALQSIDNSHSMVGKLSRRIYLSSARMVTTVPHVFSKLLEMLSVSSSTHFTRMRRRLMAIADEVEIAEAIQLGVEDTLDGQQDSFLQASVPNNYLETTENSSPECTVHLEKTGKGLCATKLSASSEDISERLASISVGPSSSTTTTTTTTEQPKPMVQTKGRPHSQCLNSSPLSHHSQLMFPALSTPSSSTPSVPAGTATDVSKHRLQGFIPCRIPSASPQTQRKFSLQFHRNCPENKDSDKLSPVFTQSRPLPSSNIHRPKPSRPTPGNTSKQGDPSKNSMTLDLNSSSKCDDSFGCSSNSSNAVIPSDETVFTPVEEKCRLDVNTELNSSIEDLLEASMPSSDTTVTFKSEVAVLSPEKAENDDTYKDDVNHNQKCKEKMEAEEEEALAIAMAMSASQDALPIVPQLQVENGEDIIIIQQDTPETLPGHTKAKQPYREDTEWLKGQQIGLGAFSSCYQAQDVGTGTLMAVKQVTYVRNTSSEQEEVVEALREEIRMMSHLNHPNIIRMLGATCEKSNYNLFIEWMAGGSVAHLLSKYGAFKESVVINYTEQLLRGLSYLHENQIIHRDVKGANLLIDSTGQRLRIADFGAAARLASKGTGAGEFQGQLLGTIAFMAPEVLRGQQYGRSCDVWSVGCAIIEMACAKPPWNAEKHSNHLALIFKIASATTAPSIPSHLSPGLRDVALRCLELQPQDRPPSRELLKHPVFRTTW
Method in brief: as §1

[4] = target: MST4 (Homo sapiens, UniProt Q9P289); conditions: MST4, 1 µM inhibitor; read-out: Residual activity, %
Sequence of MST4 (Q9P289 whole entry): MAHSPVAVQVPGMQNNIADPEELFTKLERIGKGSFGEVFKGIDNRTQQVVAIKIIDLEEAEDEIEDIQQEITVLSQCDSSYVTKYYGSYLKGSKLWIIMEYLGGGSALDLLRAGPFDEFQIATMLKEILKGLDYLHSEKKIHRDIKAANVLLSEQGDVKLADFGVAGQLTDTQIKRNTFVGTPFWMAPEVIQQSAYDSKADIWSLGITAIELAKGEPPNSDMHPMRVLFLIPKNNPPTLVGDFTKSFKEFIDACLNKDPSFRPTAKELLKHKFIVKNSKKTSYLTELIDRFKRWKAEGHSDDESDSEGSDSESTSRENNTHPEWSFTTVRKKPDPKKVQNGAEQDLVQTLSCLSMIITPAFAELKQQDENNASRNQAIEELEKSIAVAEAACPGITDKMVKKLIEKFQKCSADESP
Method in brief: as §1

[5] = target: PIM1 (Homo sapiens, UniProt P11309); conditions: PIM1, 1 µM inhibitor; for remaining activity at 1 µM: read-out: Residual activity, %
Sequence of PIM1 (P11309 whole entry): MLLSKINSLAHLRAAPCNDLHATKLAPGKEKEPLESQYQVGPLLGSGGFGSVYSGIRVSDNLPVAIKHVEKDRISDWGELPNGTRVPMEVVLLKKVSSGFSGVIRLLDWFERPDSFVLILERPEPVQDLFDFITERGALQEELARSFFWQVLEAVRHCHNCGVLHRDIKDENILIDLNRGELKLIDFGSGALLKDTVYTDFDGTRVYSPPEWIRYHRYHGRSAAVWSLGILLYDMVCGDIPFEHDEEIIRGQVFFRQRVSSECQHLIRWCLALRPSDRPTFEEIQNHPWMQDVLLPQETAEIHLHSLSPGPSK
Method in brief: as §1

[6] = target: PKB (Homo sapiens, UniProt P31749); conditions: first of two PKB lines (Greek letter lost), 1 µM inhibitor, read-out: Residual activity, %
Sequence of PKB (P31749 whole entry): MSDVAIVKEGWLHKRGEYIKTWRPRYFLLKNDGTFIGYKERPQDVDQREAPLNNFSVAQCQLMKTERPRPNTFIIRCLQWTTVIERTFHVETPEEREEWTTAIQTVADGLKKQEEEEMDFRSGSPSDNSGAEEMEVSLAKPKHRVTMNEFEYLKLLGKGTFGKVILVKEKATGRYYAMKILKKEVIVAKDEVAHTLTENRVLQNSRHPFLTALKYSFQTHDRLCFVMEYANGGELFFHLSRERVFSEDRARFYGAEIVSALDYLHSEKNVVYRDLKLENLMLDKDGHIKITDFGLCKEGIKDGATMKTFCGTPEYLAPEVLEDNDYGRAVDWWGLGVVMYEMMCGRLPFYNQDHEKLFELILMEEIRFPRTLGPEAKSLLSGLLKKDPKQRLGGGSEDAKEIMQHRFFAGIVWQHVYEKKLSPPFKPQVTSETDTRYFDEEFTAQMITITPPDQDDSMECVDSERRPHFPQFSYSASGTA
Method in brief: as §1

[7] = target: T1, TSSK1 (Homo sapiens, UniProt Q9BXA7); conditions: TSSK1, 1 µM inhibitor; read-out: Residual activity, %
T1 sequence (Q9BXA7 1-367): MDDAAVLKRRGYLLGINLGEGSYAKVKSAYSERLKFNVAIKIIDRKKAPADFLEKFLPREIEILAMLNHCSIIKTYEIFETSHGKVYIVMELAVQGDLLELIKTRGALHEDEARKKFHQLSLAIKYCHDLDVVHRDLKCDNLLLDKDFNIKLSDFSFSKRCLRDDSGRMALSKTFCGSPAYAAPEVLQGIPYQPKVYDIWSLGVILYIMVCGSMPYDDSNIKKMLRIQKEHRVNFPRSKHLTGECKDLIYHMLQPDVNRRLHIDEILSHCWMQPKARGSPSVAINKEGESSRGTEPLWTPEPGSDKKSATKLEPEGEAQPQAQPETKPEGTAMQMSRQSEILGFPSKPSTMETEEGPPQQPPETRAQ
Method in brief: as §1

[8] = target: T2, TTK (Homo sapiens, UniProt P33981); conditions: 1 µM inhibitor, read-out: Residual activity, %
T2 sequence (P33981 1-857): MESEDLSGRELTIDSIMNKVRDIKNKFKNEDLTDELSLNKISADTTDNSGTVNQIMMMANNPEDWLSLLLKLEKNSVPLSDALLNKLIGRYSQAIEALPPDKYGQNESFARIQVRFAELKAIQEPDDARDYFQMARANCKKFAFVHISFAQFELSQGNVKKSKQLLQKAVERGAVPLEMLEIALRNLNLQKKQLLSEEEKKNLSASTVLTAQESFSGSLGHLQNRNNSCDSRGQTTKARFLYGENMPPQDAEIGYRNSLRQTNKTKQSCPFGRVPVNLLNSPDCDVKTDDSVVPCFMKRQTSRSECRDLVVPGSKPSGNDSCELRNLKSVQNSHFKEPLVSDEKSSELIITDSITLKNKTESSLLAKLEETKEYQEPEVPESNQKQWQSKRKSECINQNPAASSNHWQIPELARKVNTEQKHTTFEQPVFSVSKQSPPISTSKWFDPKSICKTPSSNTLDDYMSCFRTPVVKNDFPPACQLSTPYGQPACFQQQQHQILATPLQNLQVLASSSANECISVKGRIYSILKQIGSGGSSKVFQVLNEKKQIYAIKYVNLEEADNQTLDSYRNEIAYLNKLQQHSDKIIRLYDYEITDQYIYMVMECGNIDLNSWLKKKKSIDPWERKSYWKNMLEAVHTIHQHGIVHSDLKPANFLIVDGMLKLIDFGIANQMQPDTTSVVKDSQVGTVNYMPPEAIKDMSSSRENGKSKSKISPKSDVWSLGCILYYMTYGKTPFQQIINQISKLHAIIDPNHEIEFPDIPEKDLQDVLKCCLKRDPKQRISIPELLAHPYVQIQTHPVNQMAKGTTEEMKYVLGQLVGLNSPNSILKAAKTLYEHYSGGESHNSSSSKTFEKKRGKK
Method in brief: as §1

[9] = target: T3, ZAP70 (Homo sapiens, UniProt P43403); conditions: ZAP70, 1 µM inhibitor; read-out: Residual activity, %
T3 sequence (P43403 1-619): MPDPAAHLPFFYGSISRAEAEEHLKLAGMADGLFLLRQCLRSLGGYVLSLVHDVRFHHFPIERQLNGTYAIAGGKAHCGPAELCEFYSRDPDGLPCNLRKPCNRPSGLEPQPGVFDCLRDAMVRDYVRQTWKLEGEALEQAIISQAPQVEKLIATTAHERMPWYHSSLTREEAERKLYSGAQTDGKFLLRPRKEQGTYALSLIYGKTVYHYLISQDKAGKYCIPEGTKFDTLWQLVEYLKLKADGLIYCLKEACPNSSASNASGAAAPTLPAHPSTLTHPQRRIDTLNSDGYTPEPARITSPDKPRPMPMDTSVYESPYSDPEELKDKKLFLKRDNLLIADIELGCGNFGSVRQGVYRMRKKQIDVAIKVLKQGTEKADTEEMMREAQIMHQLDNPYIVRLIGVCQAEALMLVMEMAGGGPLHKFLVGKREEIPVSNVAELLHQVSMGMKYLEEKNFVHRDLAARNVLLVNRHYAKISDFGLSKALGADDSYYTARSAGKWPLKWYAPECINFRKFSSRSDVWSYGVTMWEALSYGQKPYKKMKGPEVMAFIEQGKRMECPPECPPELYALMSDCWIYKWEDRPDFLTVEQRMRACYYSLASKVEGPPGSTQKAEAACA
Method in brief: as §1

Sequence of CLK2 (P49760 whole entry): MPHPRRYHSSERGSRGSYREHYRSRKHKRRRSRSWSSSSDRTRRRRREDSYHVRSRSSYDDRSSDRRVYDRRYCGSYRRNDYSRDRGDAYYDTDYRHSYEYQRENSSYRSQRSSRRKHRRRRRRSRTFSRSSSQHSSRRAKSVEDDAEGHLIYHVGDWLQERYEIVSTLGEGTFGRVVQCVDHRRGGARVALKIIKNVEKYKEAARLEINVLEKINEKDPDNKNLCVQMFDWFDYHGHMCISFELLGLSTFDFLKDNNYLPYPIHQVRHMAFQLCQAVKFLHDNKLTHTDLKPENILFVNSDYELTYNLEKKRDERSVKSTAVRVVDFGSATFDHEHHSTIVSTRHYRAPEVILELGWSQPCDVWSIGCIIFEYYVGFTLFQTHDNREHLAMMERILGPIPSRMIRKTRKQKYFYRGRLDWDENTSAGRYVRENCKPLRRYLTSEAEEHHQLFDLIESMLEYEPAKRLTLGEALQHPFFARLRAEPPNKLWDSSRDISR

N=C(N)NCCC[C@@H](NC(=O)CCCCCNC(=O)Cn1cnc2c(I)c(I)c(I)c(I)c21)C(=O)N[C@H](CCCNC(=N)N)C(=O)N[C@H](CCCNC(=N)N)C(=O)N[C@H](CCCNC(=N)N)C(=O)N[C@H](CCCNC(=N)N)C(=O)N[C@H](CCCNC(=N)N)C(=O)N[C@H](CCCCN)C(N)=O [ARC-3125, TIBI-CH2-C(=O)-Ahx-(D-Arg)6-D-Lys-NH2]
remaining activity at 1 µM [1]: -1 ± 5%
remaining activity at 1 µM [2]: 108 ± 2%
remaining activity at 1 µM [3]: 77 ± 1%
remaining activity at 1 µM [4]: 71 ± 4%
remaining activity at 1 µM [5]: 0%
remaining activity at 1 µM [6]: -1 ± 1%
remaining activity at 1 µM [7]: 63 ± 6%
remaining activity at 1 µM [8]: 45 ± 1%
remaining activity at 1 µM [9]: 105 ± 8%

N=C(N)NCCC[C@@H](NC(=O)CCCCCNCc1nc2c(sc3cc(Br)cnc32)c(=O)[nH]1)C(=O)N[C@H](CCCNC(=N)N)C(=O)N[C@H](CCCNC(=N)N)C(=O)N[C@H](CCCNC(=N)N)C(=O)N[C@H](CCCNC(=N)N)C(=O)N[C@H](CCCNC(=N)N)C(=O)N[C@H](CCCCN)C(N)=O [ARC-3126, BPTP-Ahx-(D-Arg)6-D-Lys-NH2] (X3-[dR][dR][dR][dR][dR][dR][dK]-NH2)
remaining activity at 1 µM [1]: 57 ± 15%
remaining activity at 1 µM [2]: 113 ± 13%
remaining activity at 1 µM [3]: 103 ± 2%
remaining activity at 1 µM [4]: 125 ± 22%
Residual activity, % [5]: zero
remaining activity at 1 µM [5]: 0%
remaining activity at 1 µM [6]: 80 ± 4%
remaining activity at 1 µM [7]: 97 ± 16%
remaining activity at 1 µM [8]: 110 ± 4%
remaining activity at 1 µM [9]: 83 ± 30%

N=C(N)NCCC[C@@H](NC(=O)CNC(=O)[C@@H](CCCNC(=N)N)NC(=O)[C@@H](CCCNC(=N)N)NC(=O)CCCCCCCNCc1nc2c(sc3cc(Br)cnc32)c(=O)[nH]1)C(=O)N[C@H](CCCCN)C(N)=O [Compound 1, BPTP-Aoc-(D-Arg)2-Gly-D-Arg-D-Lys-NH2]
remaining activity at 1 µM [1]: 97%
remaining activity at 1 µM [2]: 116 ± 5%
remaining activity at 1 µM [3]: 108 ± 16%
remaining activity at 1 µM [4]: 143 ± 10%
remaining activity at 1 µM [5]: 9%
remaining activity at 1 µM [6]: 101 ± 6%
remaining activity at 1 µM [7]: 98 ± 9%
remaining activity at 1 µM [8]: 113%
remaining activity at 1 µM [9]: 95 ± 21%

N=C(N)NCCC[C@@H](NC(=O)CNC(=O)[C@@H](CCCNC(=N)N)NC(=O)[C@@H](CCCNC(=N)N)NC(=O)CCCCCCCNCc1nc2c(sc3ccc(Br)cc32)c(=O)[nH]1)C(=O)N[C@H](CCCCN)C(N)=O [Compound 2, BBTP-Aoc-(D-Arg)2-Gly-D-Arg-D-Lys-NH2]
remaining activity at 1 µM [1]: 24%
remaining activity at 1 µM [2]: 113 ± 10%
remaining activity at 1 µM [3]: 119 ± 5%
remaining activity at 1 µM [4]: 121 ± 8%
remaining activity at 1 µM [5]: 5 ± 3%
remaining activity at 1 µM [6]: 67 ± 7%
remaining activity at 1 µM [7]: 108%
remaining activity at 1 µM [8]: 94 ± 15%
remaining activity at 1 µM [9]: 87 ± 7%

N=C(N)NCCC[C@@H](NC(=O)CNC(=O)[C@@H](CCCNC(=N)N)NC(=O)[C@@H](CCCNC(=N)N)NC(=O)Cn1cc(CNCc2nc3c(sc4ccc(Br)cc43)c(=O)[nH]2)nn1)C(=O)N[C@H](CCCCN)C(N)=O [Compound 3, BBTP-Amt-(D-Arg)2-Gly-D-Arg-D-Lys-NH2]
remaining activity at 1 µM [1]: 30 ± 1%
remaining activity at 1 µM [2]: 132 ± 6%
remaining activity at 1 µM [3]: 98 ± 2%
remaining activity at 1 µM [4]: 95 ± 32%
remaining activity at 1 µM [5]: 5 ± 1%
remaining activity at 1 µM [6]: 72 ± 12%
remaining activity at 1 µM [7]: 100 ± 10%
remaining activity at 1 µM [8]: 86 ± 9%
remaining activity at 1 µM [9]: 53 ± 14%
